Experimental data published in patent US20210380703A1.
Numbering of substitutions follows the chain as printed.

B1: 376_G05 (antibody, V domains shown)
VH: EVQLLESGGGLVQPGGSLRLSCAASGFTFSSYSMNWVRQAPGKGLEWVAGINYNGGYTSYADSVKGRFTISRDNSKNTLYLQMNSLRAEDTAVYYCARGANWHDTALDYWGQGTLVTVSS
VL: DIQMTQSPSSLSASVGDRVTITCRASQSIISYVNWYQQKPGKAPKLVIYAATSRASGVPSRFSGSGSGTDFTLTISSLQPEDFATYYCQQSYESPLTFGGGTKVEIK
B2: 368_H11 (antibody, V domains shown)
VH: B1 VH with S30D, S33G, N35H, G50S, N101T, A106H
VL: B1 VL with I30L, V33L, V47L, Y92D, E93D, S94T
B3: 369_E05 (antibody, V domains shown)
VH: B1 VH with S31D, S33G, G50N, T58K, N101T, A106H
VL: B1 VL with I30L, S31T, V33L, V47L, R54L, S94T
B4: 367_B06 (antibody, V domains shown)
VH: B1 VH with G50N, S59G, N101T, A106H
VL: B1 VL with R54L, A55H, E93N
B5: 366_G09 (antibody, V domains shown)
VH: B1 VH with S30D, S31D, G50S, G55S, S59G, N101T, A106H
VL: B1 VL with I30L, E93D, S94L
B6: 367_F09 (antibody, V domains shown)
VH: B1 VH with S30D, N35H, N101T, A106H
VL: B1 VL with I30L, S31T, V33L, V47L, R54L, Y92D, E93S, S94N
B7: 367_A02 (antibody, V domains shown)
VH: B1 VH with S30D, S33G, A49S, G50S, G55S, T58K, S59G, N101T, A106H
VL: B1 VL with V33L, V47L, A51V, E93D, S94T
B8: 367_D05 (antibody, V domains shown)
VH: B1 VH with S31D, A49S, G50S, T58K, N101T, A106H
VL: B1 VL with R54L, E93D
B9: 370_F02 (antibody, V domains shown)
VH: B1 VH with S30D, S33G, G50N, S59G, N101T, A106H
VL: B1 VL with I30L, V33L, V47L, A51V, A55H, E93D
B10: 368_D12 (antibody, V domains shown)
VH: B1 VH with S33G, A49S, G50S, N101T, A106H
VL: B1 VL with I30L, E93N, S94N
B11: 376_G10 (antibody, V domains shown)
VH: B1 VH with S30D, S33G
VL: B1 VL with I30L, V47L
B12: 369_D08 (antibody, V domains shown)
VH: B1 VH with S31D, G50S, T58K, S59G, N101T, A106H
VL: B1 VL with I30L, S31T, V33L, V47L, E93D, S94T
B13: 370_B08 (antibody, V domains shown)
VH: B1 VH with S31D, G50N, S59G, N101T, A106H
VL: B1 VL with I30L, V33L, V47L, T52S, R54L, A55Q, E93D
B14: 366_D08 (antibody, V domains shown)
VH: B1 VH with S33G, N35H, A49S, G50N, T58K, N101T, A106H
VL: B1 VL with I30L, R54L, S94N
B15: 376_H11 (antibody, V domains shown)
VH: B1 VH with S30D, A49S, G50N, S59G
VL: B1 VL with I30S, S31R, V33L, V47L, A51V, R54L
B16: 365_D02 (antibody, V domains shown)
VH: B1 VH with N35H, G50S, N101T, A106H
VL: B1 VL with I30V, S31T, V33L, V47L, R54L, E93D, S94N
B17: 369_F09 (antibody, V domains shown)
VH: B1 VH with S33G, N35H, N101T, A106H
VL: B1 VL with I30L, S31T, V47L, E93D
B18: 365_C02 (antibody, V domains shown)
VH: B1 VH with S30D, A49S, G50N, T58K, S59G, N101T, A106H
VL: B1 VL with I30S, S31T, V33L, A55H, S94N
B19: 369_F05 (antibody, V domains shown)
VH: B1 VH with A49S, T58K, N101T, A106H
VL: B1 VL with I30S, V33L, V47L, T52S, R54L, A55Q, S91G, E93D
B20: 369_C12 (antibody, V domains shown)
VH: B1 VH with S33G, G50N, T58K, S59G, N101T, A106H
VL: B1 VL with I30L, S31T, V33L, V47L, A55H, E93D, S94T
B21: 368_G10 (antibody, V domains shown)
VH: B1 VH with N35H, A49S, G50S, N101T, A106H
VL: B1 VL with I30V, E93D, S94T
B22: 369_H08 (antibody, V domains shown)
VH: B1 VH with G55S, T58K, N101T, A106H
VL: B1 VL with I30L, R54L
B23: 369_E08 (antibody, V domains shown)
VH: B1 VH with G50S, G55S, S59G, N101T, A106H
VL: B1 VL with I30L, S31T, V47L, E93D
B24: 370_E05 (antibody, V domains shown)
VH: B1 VH with S33G, A49S, G50N, T58K, S59G, N101T, A106H
VL: B1 VL with I30S, S31T, V33L, A51V, E93N
B25: 368_F06 (antibody, V domains shown)
VH: B1 VH with S30D, S31D, N35H, G50N, G55S, S59G, N101T, A106H
VL: B1 VL with I30L, V33L, A51T, S94N
B26: 365_F05 (antibody, V domains shown)
VH: B1 VH with S33G, G50S, N101T, A106H
VL: B1 VL with I30V, S31T, V47L, S94T
B27: 369_G05 (antibody, V domains shown)
VH: B1 VH with N101T, A106H
VL: B1 VL with I30V, V33L, V47L, A55H, E93D
B28: 369_H02 (antibody, V domains shown)
VH: B1 VH with S30D, S31D, A49S, G50N, T58K, N101T, A106H
VL: B1 VL with V33L, V47L, E93D
B29: 367_D09 (antibody, V domains shown)
VH: B1 VH with S30D, S33G, G50S, T58K, N101T, A106H
VL: B1 VL with I30L, S31T, V33L, V47L, R54L, E93D, S94N
B30: 367_E07 (antibody, V domains shown)
VH: B1 VH with S31D, A49S, G50S, T58K, S59G, N101T, A106H
VL: B1 VL with I30L, S94N
B31: 365_C04 (antibody, V domains shown)
VH: B1 VH with S30D, G50N, T58K, S59G, N101T, A106H
VL: B1 VL with I30L, S31T, V33L, R54L, E93D, S94T
B32: 376_H04 (antibody, V domains shown)
VH: B1 VH with T58K, S59G
VL: B1 VL with I30L, S31T, E93D, S94L
B33: 369_H12 (antibody, V domains shown)
VH: B1 VH with T58K, N101T, A106H
VL: B1 VL with I30V, S31T, E93D
B34: 368_G03 (antibody, V domains shown)
VH: B1 VH with A49S, G55S, N101T
VL: B1 VL with I30L, V33L, E93D, S94T
B35: 365_A08 (antibody, V domains shown)
VH: B1 VH with G50S, T58K, N101T, A106H
VL: B1 VL with S31T, V33L, Y92D, E93N, S94T
B36: 367_C08 (antibody, V domains shown)
VH: B1 VH with S30D, N35H, N101T, A106H
VL: B1 VL with I30L, S31T, V33L, V47L, R54L, Y92D, E93S, S94N
B37: 376_G06 (antibody, V domains shown)
VH: B1 VH with S33G, S59G, A106H
VL: B1 VL with I30V, E93N
B38: 369_A11 (antibody, V domains shown)
VH: B1 VH with S30D, S33G, G50N, T58K, S59G, N101T, A106H
VL: B1 VL with S31T, V33L, A55H
B39: 370_F01 (antibody, V domains shown)
VH: B1 VH with S33G, A49S, G50N, N101T, A106H
VL: B1 VL with I30V, V33L, V47L, E93D
B40: 370_E04 (antibody, V domains shown)
VH: B1 VH with G50N, T58K, S59G, N101T, A106H
VL: B1 VL with I30L, S31T, V33L, V47L, A51V, R54L, A55H, S94T
B41: 368_C11 (antibody, V domains shown)
VH: B1 VH with S31D, A49S, G50S, G55S, T58K, N101T, A106H
VL: B1 VL with V33L, V47L, E93D, S94N
B42: 370_D09 (antibody, V domains shown)
VH: B1 VH with S31D, A49S, G55S, N101T, A106H
VL: B1 VL with I30V, S31T, V33L, E93D, S94T
B43: 370_D03 (antibody, V domains shown)
VH: B1 VH with G50S, N101T, A106H
VL: B1 VL with S31T, V33L, V47L, E93D, S94L
B44: 368_H06 (antibody, V domains shown)
VH: B1 VH with S30D, S33G, N35H, G50N, T58K, N101T, A106H
VL: B1 VL with I30L, S31T, V47L, A51T, E93D, S94N
B45: 370_C07 (antibody, V domains shown)
VH: B1 VH with G50N, T58K, N101T, A106H
VL: B1 VL with I30L, V33L, V47L, A55H
B46: 365_D10 (antibody, V domains shown)
VH: B1 VH with S59G, N101T, A106H
VL: B1 VL with I30S, S31T, V33L, V47L
B47: 368_D02 (antibody, V domains shown)
VH: B1 VH with S30D, S31D, S33G, A49S, G50N, S59G, N101T, A106H
VL: B1 VL with I30S, S31T, V33L, A55H, E93D, S94T
B48: 370_F12 (antibody, V domains shown)
VH: B1 VH with S31D, G50N, S59G, N101T, A106H
VL: B1 VL with I30L, V33L, V47L, T52S, R54L, A55Q, E93D

These binders were tested against Human Fc (human) (assay: ELISA; negative control).

| optical density [OD] | Binder |
| --- | --- |
| 0.252 | B1 |
| 0.355 | B2 |
| 0.282 | B3 |
| 0.378 | B4 |
| 0.291 | B5 |
| 0.289 | B6 |
| 0.305 | B7 |
| 0.265 | B8 |
| 0.376 | B9 |
| 0.329 | B10 |
| 0.321 | B11 |
| 0.241 | B12 |
| 0.302 | B13 |
| 0.312 | B14 |
| 0.325 | B15 |
| 0.486 | B16 |
| 0.5 | B17 |
| 0.362 | B18 |
| 0.331 | B19 |
| 0.418 | B20 |
| 0.356 | B21 |
| 0.389 | B22 |
| 0.272 | B23 |
| 0.427 | B24 |

| optical density [OD] | Binder |
| --- | --- |
| 0.249 | B25 |
| 0.376 | B26 |
| 0.384 | B27 |
| 0.408 | B28 |
| 0.381 | B29 |
| 0.221 | B30 |
| 0.305 | B31 |
| 0.34 | B32 |
| 0.414 | B33 |
| 0.312 | B34 |
| 0.256 | B35 |
| 0.278 | B36 |
| 0.267 | B37 |
| 0.366 | B38 |
| 0.407 | B39 |
| 0.292 | B40 |
| 0.275 | B41 |
| 0.287 | B42 |
| 0.57 | B43 |
| 0.311 | B44 |
| 0.316 | B45 |
| 0.641 | B46 |
| 0.321 | B47 |
| 0.457 | B48 |
